From publication PMC3115949

Substrate: O=P(O)(O)O
Test: cells, lysate or membranes
Conditions: labelled compound, whole yeast cells, 5 min, 30 °C, glucose-energized, Pi 50-2000 µM, proton symport, pH of Km assay not stated

B1: GmPT1 (Glycine max) (protein)
chain: MAGGQLGVLNALDVAKTQWYHFTAIVIAGMGFFTDAYDLFCISLVTKLLGRLYYTDIRNPKPGVLPPNVQAAVTGVALCGTLAGQLFFGWLGDKLGRKRVYGLTLMLMVLCSIASGLSFGDTPKGVMATLCFFRFWLDFGIGGDYPLSATIMSEYANKKTRGSFIAAVFAMQGFGIMAGGIVALIVSSAYDHKYDLPSYKDNPAGSKVDSLDYVWRIILMFGAVPAALTYYWRMKMPETARYTALVAKNAKQAASDMSKVLQVEVEAEEDKLQHMVESENQKYGLFSKEFAKRHGLHLVGTTVTWFLLDIAFYSQNLFQKDIFTAIGWIPPAQDMNAIHEVYRIARAQTLIALCSTVPGYWFTVAFIDIIGRFAIQLMGFFFMTVFMFALAIPYNHWKNHNNIGFVVMYSFTFFFSNFGPNATTFVVPAEIFPARLRSTCHGISAAAGKAGAIVGAFGFLYAAQSTNPNKVDHGYPTGIGVKNSLIVLGVINFFGMVFTLLVPESKGKSLEELSGENEDDGAEAIEMAGSARTVPV
- Km: 6.65 mM

B2: GmPT2 (Glycine max) (protein)
chain: MAGGQLGVLNALDVAKTQWYHFTAIVIAGMGFFTDAYDLFCISLVTKLLGRLYYTDITNPKPGVLPPNVQAAVTGVALCGTLAGQLFFGWLGDKLGRKRVYGLTLMLMVVCSVASGLSFGDTPKGVMATLCFFRFWLGFGIGGDYPLSATIMSEYANKKTRGAFIAAVFAMQGFGILAGGIVALIVSSAYDHKYDLPSYKDNPAGSKVDSLDYVWRIILMFGAVPAGLTYYWRMKMPETARYTALVAKNAKQAASDMSKVLQVEVEAEEDKLQHMVESEHQKYGLFSKEFAKRHGLHLVGTTVTWFLLDIAFYSQNLFQKDIFSAIGWIPPAQDMNAIHEVYRIARAQTLIALCSTVPGYWFTVAFIDIMGRFAIQLMGFFFMTVFMFALAIPYNHWKNHNNIGFVVMYSFTFFFSNFGPNATTFVVPAEIFPARLRSTCHGISAAAGKAGAIVGAFGFLYAAQSTNPDKVDHGYPTGIGVKNSLIVLGVINFFGMVFTLLVPESKGKSLEELSGENEDDGAEAIEMAGSARTVPV
- Km: 6.63 mM
